Laboratory results: doi:10.1101/2021.09.09.459598

Target: soybean QUAC1 from Glycine max (GmQUAC1) (soybean (Glycine max))
Test: cryo-EM structure

- stoichiometry N: 2
Substance: soybean QUAC1 from Glycine max (GmQUAC1) (natural protein)
